Reference: patent publication US20040005630A1 (published 2004)

Legend:
[1] = target: T1, rat CD5 antigen (rat equivalent of CD5) present on rat T cells (rat) (UniProt P51882); assay: flow cytometry of rat spleen cells 3 h after 0.5 mg/kg i.v., PE anti-mouse IgG1 detection
T1 sequence (looked up): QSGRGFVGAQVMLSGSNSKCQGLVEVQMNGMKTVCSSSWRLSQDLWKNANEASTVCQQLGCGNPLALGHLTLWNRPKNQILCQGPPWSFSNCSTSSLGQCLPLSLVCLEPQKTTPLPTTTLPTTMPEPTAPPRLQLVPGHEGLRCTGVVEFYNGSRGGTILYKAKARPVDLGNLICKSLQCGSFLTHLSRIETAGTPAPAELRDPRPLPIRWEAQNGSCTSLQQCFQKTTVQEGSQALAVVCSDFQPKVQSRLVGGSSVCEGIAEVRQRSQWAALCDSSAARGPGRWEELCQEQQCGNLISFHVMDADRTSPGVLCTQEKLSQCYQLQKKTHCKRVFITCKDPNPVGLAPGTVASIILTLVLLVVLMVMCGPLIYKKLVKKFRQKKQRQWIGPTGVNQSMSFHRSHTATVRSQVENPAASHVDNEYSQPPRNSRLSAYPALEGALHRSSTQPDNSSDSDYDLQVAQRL

[2] = target: T1, rat CD5 antigen (rat equivalent of CD5) present on rat T cells (rat); assay: flow cytometry of rat lymph node cells 3 h after 0.5 mg/kg i.v., PE anti-mouse IgG1 detection
[3] = target: T1, rat CD5 antigen (rat equivalent of CD5) present on rat T cells (rat); assay: flow cytometry of rat blood cells 3 h after 0.5 mg/kg i.v., PE anti-mouse IgG1 detection
[4] = target: T1, rat CD5 antigen (rat equivalent of CD5) present on rat T cells (rat); assay: flow cytometry of rat blood cells 3 h after 0.5 mg/kg i.v., PE anti-mouse IgG1 detection (isotype matched negative control)
[5] = target: T1, rat CD5 antigen (rat equivalent of CD5) present on rat T cells (rat); assay: flow cytometry of rat spleen cells 3 h after 0.5 mg/kg i.v., PE anti-mouse IgG1 detection (isotype matched negative control)
[6] = target: T1, rat CD5 antigen (rat equivalent of CD5) present on rat T cells (rat); assay: flow cytometry of rat lymph node cells 3 h after 0.5 mg/kg i.v., PE anti-mouse IgG1 detection (isotype matched negative control)
human CD5 antigen = target: T2, human CD5 antigen (human, UniProt P06127 25-495); assay: competitive binding on Molt4-M cells, single point at 0.54 nM, competitor 125I-cH65 IgG
T2 construct: whole, on cells; also called gp67; CD5 found on Molt-4M
T2 sequence (looked up): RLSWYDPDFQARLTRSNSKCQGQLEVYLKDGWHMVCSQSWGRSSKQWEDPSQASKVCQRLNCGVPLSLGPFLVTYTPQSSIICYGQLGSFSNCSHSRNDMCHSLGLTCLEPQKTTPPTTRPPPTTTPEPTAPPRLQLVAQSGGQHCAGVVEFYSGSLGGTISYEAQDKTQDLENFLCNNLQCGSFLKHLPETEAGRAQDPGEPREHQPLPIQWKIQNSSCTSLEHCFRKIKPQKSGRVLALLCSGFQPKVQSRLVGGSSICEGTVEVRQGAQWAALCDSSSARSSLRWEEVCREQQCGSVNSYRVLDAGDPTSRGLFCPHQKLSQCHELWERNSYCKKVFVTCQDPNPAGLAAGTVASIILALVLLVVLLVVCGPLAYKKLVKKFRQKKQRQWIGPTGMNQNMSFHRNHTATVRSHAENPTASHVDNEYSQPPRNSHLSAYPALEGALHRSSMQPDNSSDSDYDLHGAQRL
Method: Molt4-M cells, which express CD5 on their surface, were plated into 96 well V-bottom plates at a density of 3×10⁵ cells per well and pelleted by centrifugation. The medium was decanted, and 100 μl of purified cH65 IgG at final concentrations from 200 nM to 0.0017 nM (diluted in 3-fold steps) in “BHD” [DMEM (Dulbecco's Modified Eagle's Medium)+1% BSA+10 mM Hepes, pH 7.2] (BHD) was added to each well, followed by 100 μl of ¹²⁵I-cH65 IgG (final concentration=0.1 nM) in BHD. For single point determinations, 50-100 μl of the Centricon® concentrates were added to the wells as follows: hH65 (final concentration=0.54 nM), cH65 (final concentration=0.22 nM), CM+purified cH65 IgG (final concentration=30 nM) and CM alone. These were followed by addition of ¹²⁵I-cH65 IgG (final concentration=0.1 nM). Binding was allowed to proceed for 5 hours at 4° C. At the end of 5 hours, binding was terminated by three washes with ice cold BHD using centrifugation to pellet cells. Radioactivity was determined by solubilizing bound ¹²⁵I-cH65 IgG with 1N NaOH and counting in a Beckman Gamma 8000 (Beckman Instruments, Fullerton, Calif.).

Work on OX19 MoAb (antibody) yielded a % of CD4 cells that are also positive for mouse IgG1 [1] of 84.8%, a % of CD8 cells that are also positive for mouse IgG1 [1] of 73.6% and a % of CD4 cells that are also positive for mouse IgG1 [2] of 96.2%. The % of CD8 cells that are also positive for mouse IgG1 [2] was 96.8%, the % of CD4 cells that are also positive for mouse IgG1 [3] was 96.2% and the % of CD8 cells that are also positive for mouse IgG1 [3] was 70.2%.

B1: MoAb H65 (murine monoclonal antibody produced by cell line XMMLY-H65) (antibody, V domains shown)
VH: QIQLVQSGPELKKPGETVKISCKASGYTFTNYGMNWVKQAPGKGLRWMGWINTHTGEPTYADDFKGRFAFSLETSASTAYLQINNLKNEDTATYFCTRRGYDWYFDVWGAGTTVTVSS
VL: DIKMTQSPSSMYASLGERVTITCKASQDINSYLSWFQQKPGKSPKTLIYRANRLVDGVPSRFSGSGSGQDYSLTISSLDYEDMGIYYCQQYDESPWTFGGGTKLEIK
In the case of B1, the % of CD4 cells that are also positive for mouse IgG1 [4] is reported as 6.7%, the % of CD8 cells that are also positive for mouse IgG1 [4] is reported as 5.7% and the % of CD4 cells that are also positive for mouse IgG1 [5] is reported as 14.8%. The % of CD8 cells that are also positive for mouse IgG1 [5] was 20.6%, the % of CD4 cells that are also positive for mouse IgG1 [6] was 4.2% and the % of CD8 cells that are also positive for mouse IgG1 [6] was 6.5%.

B2: humanized H65 IgG (low-risk modified H65) (antibody, V domains shown)
VH: QIQLVQSGPGLKKPGGSVRISCAASGYTFTNYGMNWVKQAPGKGLRWMGWINTHTGEPTYADDFKGRFTFSLDTSKSTAYLQINSLRAEDTATYFCTRRGYDWYFDVWGQGTTVTVSS
VL: DIQMTQSPSSMSASLGDRVTITCRASQDINSYLSWFQQKPGKSPKTLIYRANRLVDGVPSRFSGSGSGTDYTLTISSLQYEDFGIYYCQQYDESPWTFGGGTKLEIK
notes: Whole IgG transiently expressed in CHO-K1 from vectors pING4612 (heavy) and pING4614 (light); Human constant regions; also called hH65; H65 antibody modified according to the methods of the present invention
B2: binds (human CD5 antigen).
